Source: article PMC7431705, “Angiogenesis Inhibition by a Short 13 Amino Acid Peptide Sequence of Tetrastatin, the α4(IV) NC1 Domain of Collagen IV” (Frontiers in Cell and Developmental Biology, 2020)
Where a SMILES comes first, the peptide text is derived from it. Bridges are numbered along the chain shown (N, C = ends).

What was measured:
α5β1 integrin [1] = biological target: T1, α5β1 integrin (Homo sapiens, UniProt P05556+P08648); experiment: Surface plasmon resonance (Biacore T200); type: binding; details: biotinylated QS-13 (QKISRCQVCVKYSK-biot) captured on streptavidin CM5 chip; α5β1 integrin 0.12-130 nM; HBS pH 7.4, 3.4 mM EDTA, 0.05% P20, 25°C; Req fitted to 1:1 model
T1 construct: purchased R&D Systems 3230-A5-050
T1 sequence (P08648 42-894 limits assumed): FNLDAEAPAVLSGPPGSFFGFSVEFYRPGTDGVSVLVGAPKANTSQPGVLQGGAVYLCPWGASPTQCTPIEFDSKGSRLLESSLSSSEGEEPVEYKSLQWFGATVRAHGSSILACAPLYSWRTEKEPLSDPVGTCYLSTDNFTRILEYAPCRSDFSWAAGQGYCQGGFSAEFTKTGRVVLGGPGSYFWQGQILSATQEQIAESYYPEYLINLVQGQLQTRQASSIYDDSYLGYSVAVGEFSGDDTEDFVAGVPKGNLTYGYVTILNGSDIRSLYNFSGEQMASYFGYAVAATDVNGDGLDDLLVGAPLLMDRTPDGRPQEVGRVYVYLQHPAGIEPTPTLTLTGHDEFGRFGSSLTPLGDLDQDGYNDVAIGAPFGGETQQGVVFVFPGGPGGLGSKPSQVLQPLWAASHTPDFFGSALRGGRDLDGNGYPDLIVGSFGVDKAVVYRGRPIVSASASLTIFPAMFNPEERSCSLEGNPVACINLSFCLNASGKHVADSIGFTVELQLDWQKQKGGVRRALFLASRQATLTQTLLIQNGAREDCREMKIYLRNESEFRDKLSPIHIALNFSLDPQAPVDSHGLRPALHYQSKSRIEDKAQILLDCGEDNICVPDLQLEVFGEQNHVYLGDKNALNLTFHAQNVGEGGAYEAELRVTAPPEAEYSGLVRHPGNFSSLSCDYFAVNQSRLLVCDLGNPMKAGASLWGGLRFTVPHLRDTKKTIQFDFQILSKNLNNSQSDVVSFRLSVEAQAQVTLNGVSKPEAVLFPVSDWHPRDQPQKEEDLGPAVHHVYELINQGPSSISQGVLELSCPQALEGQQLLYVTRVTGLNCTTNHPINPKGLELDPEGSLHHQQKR
T1 sequence (P08648 895-995 partner limits assumed): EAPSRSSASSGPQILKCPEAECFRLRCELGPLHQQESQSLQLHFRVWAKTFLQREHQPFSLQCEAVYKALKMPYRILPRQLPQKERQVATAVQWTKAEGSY
T1 sequence (P05556 21-728 limits assumed): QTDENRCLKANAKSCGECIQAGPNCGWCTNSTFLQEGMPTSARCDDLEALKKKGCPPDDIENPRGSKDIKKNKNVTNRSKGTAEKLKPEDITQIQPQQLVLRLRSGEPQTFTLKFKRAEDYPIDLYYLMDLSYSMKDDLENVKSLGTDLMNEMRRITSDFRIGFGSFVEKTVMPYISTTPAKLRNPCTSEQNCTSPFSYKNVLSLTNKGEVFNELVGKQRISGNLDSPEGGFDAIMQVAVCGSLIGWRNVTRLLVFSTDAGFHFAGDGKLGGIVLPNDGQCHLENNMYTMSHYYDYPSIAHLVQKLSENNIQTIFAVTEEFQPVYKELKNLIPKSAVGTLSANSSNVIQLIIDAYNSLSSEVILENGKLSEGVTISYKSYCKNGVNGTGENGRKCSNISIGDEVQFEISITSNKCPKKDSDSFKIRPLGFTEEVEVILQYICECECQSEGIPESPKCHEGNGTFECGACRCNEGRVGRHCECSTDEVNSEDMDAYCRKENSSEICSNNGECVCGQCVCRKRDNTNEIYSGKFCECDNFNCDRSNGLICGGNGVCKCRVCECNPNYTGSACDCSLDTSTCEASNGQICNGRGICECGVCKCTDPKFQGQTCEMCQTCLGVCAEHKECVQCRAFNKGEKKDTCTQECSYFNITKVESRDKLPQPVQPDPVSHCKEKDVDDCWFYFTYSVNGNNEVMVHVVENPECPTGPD
Procedure: All experiments were performed on a Biacore T200 instrument (GE Healthcare) at 25°C. Sensor surfaces and other Biacore consumables were purchased from GE Healthcare. Integrin α5β1 was from R&D Systems. The running buffer, HEPES buffered saline (HBS, composed of 0.01 M HEPES, pH 7.4, 0.15 M NaCl, 3.4 mM EDTA) was filtered through a 0.22 μm membrane and supplemented with 0.05% P20. Biotinylated peptides were captured on streptavidin-coated sensor chips. Briefly, CM5 sensor chips (GE Healthcare) were preconditioned by duplicate injections of 10 mM HCl, 50 mM NaOH, each for 10 s, and water for 20 s. Before covalent immobilization of streptavidin, traces of biotinylated products that could remain in the flow system were neutralized by injecting a streptavidin solution (0.1 mg/mL in running buffer) for 5 min through all flow cells ([Baltzinger et al., 2013]). Streptavidin was then stably immobilized using standard amine-coupling methods. The flow rate was 10 μL/min. […] The equilibrium response (Req) was recorded 5 s before the end of integrin injection. The KD was determined by fitting the equilibrium response versus the [integrin] curve to a simple 1:1 interaction model with the Biacore T200 evaluation software (GE Healthcare).

cancer = details: ref Stoeltzing et al., 2003; Khalili et al., 2006; cited from earlier work
From the text: Peptides also emerged as important therapeutic agents in angiogenesis-dependent diseases due to their low toxicity and high specificity ([Rosca et al., 2011]).

cancer patients = test system: cancer patients; parameters: method as in 3 sources, one per row (each row's own in cited_ref): ref Besse et al., 2013 ||| ref Cianfrocca et al., 2006 ||| ref Alday-Parejo et al., 2019; details: cited from earlier work
[2] = test system: angiogenesis, tumor growth and metastasis; parameters: method as in Almokadem and Belani, 2012; details: mice; ref Almokadem and Belani, 2012; cited from earlier work
α5β1 integrin [3] = biological target: T1, α5β1 integrin; experiment: Solid phase assay, binding to coated integrin; details: coated 25 nM α5β1 integrin; biotinylated QS-13 90 min, room temperature, 1 mM MgCl2 and CaCl2; streptavidin-peroxidase/TMB 450 nm; n = 4, 2 experiments
Procedure: Wells of a 96-well plate were coated with 25 nM α5β1 integrin (3230-A5-050; R&D Systems, Lille, France) in amounts overnight at room temperature. The coating was then blocked with TBS containing 5% dry milk, 1 mM MgCl2, and 1 mM CaCl2 for 2 h at room temperature. After washing three times with washing buffer (0.1% dry milk, 1 mM MgCl2, and 1 mM CaCl2 in TBS), the plate was incubated for 90 min at room temperature with 100 μL per well of ranging from 1.25 to 20.10^–11 moles/well biotinylated-QS-13 diluted in washing buffer. After 3 washes, 100 μL of streptavidin-peroxidase diluted 1/20000 in washing buffer were added to each well and incubated for 15 min at room temperature. After 4 washes, 100 μL per well of tetramethylbenzidine (TMB), a peroxidase substrate, were added and incubated in the dark for 15 min. The enzymatic reaction was stopped by adding 50 μL per well of 0.5 M H2SO4. The intensity of the yellow coloration was measured at 450 nm with a Biochrom Asys UVM 340 microplate reader.

HUVEC adhesion on QS-13 = HUVEC adhesion on QS-13 coating with effector preincubation; type: cell-based, Human; details: peptide 20 μg/mL (legend Figure 5), 30 min preincubation; adhesion 60 min; n = 8, p < 0.001
Procedure: Cells were detached with 50 mM Hepes, 125 mM NaCl, 5 mM KCl, and 1 mM EDTA, washed three times with ECGM, pre-incubated for 30 min with effectors [mouse anti-human α5β1, catalog number 555614 from BD Pharmingen (10 μg/mL), irrelevant IgG ([…])]. 10,000 cells were seeded per well of a 96 well-plate previously coated with QS-13 and saturated with 1% BSA. After 60 min, cells were washed three times with HEPES buffered Balanced Salt Solution, fixed with 1.1% glutaraldehyde solution and stained with 1% crystal violet solution. Staining was extracted with 10% acetic acid and absorbance was read at 560 nm.
For in vitro experiments, results are expressed as the mean ± SD and statistical significance were determined using Student’s t-test. For in vivo experiments, the non-parametric Mann–Whitney test was performed.

[4] = biological target: Biotinylated QS-13 (…-biot); experiment: SPR; Biacore T200, 25°C; biotinylated QS-13 captured on a streptavidin-coated CM5 chip; α5β1 integrin injected at 0.12-130 nM, 300 s; HBS (0.01 M HEPES pH 7.4, 0.15 M NaCl, 3.4 mM EDTA) with 0.05% P20; reference surface with an irrelevant biotinylated peptide; equilibrium response fitted to a 1:1 model
[5] = biological target: QS-13 peptide (…), minimal active sequence of Tetrastatin, the α4(IV) NC1 domain of collagen IV
[6] = biological target: QS-13 peptide (…), minimal active sequence of Tetrastatin, the α4(IV) NC1 domain of collagen IV; remark: listed apart in the source
angiogenesis = details: ref Petitclerc et al., 2000; Wietecha et al., 2013; Monboisse et al., 2014; cited from earlier work
From the text: Basement membrane are composed of type IV collagen in association with other minor collagens, such as collagens XVIII or XIX, laminins, nidogens, and perlecan. Type IV collagen is composed of three α(IV) chains, out of six possible [α1(IV)-α6(IV)]. Each α(IV) chain comprises a 7S N-terminal domain, a long interrupted triple helical domain and a globular C-terminal non-collagenous (NC1) domain ([Wu and Ge, 2019]).

α5β1 integrin [7] = biological target: T1, α5β1 integrin; parameters: method as in Sudhakar et al., 2003; details: ref Sudhakar et al., 2003; cited from earlier work
αvβ3 integrin = details: tumor cell surface; ref Pasco et al., 2000; Brassart-Pasco et al., 2012; Lambert et al., 2018; cited from earlier work
From the text: The NC1 domains of the different α(IV) collagen chains were reported to exert anti-tumor or anti-angiogenic effects ([Mundel and Kalluri, 2007]; [Monboisse et al., 2014]; [Brassart-Pasco et al., 2020]).

With CC[C@H](C)[C@H](NC(=O)[C@H](CCCCN)NC(=O)[C@@H](N)CCC(N)=O)C(=O)N[C@@H](CO)C(=O)N[C@@H](CCCNC(=N)N)C(=O)N[C@H]1CSSC[C@@H](C(=O)N[C@H](C(=O)N[C@@H](CCCCN)C(=O)N[C@@H](Cc2ccc(O)cc2)C(=O)N[C@@H](CO)C(=O)O)C(C)C)NC(=O)[C@H](C(C)C)NC(=O)[C@H](CCC(N)=O)NC1=O [QS-13, QKISRCQVCVKYS] (H-QKISRCQVCVKYS-OH; disulfide 6-9) the Kd (α5β1 integrin [1]) was 20.3 ± 7.5 nM.

In the case of “Ac-PHSCN-NH(2) [ATN-161, reference compound]”, the preclinical anti-cancer activity (cancer) is given as “showed preclinical anti-cancer activities” and the clinical benefit (cancer patients; ref Cianfrocca et al., 2006) is given as “failed to provide therapeutic benefits”.

In the case of “M200/volociximab: anti-α5β1 integrin antibody”, the “efficacy in advanced NSCLC” value (cancer patients; ref Besse et al., 2013) is given as “preliminary evidence of efficacy in advanced NSCLC” and the “effect on angiogenesis, tumor growth and metastasis” value [2] is given as “inhibit angiogenesis and to suppress tumor growth and metastasis in mice”.

For “QKISRCQVCVKYSK-biot (disulfide) [biotinylated-QS-13]”, the “binding to α5β1 integrin” value (α5β1 integrin [3]) was “binds to α5β1 integrin in a ligand concentration dependent manner”.

For “RGDS [RGDS peptide, RGDS peptide (Sigma)]”, the “inhibition of HUVEC adhesion on QS-13 coating (peptide competition)” value (HUVEC adhesion on QS-13) was “about 60%”.

“α5β1 integrin (recombinant, R&D Systems 3230-A5-050) (from UniProt P08648 42-1049; P05556 21-728) (receptor)” showed a Kd [4] of 20.3 nM.

“α5β1 integrin of Human Umbilical Vein Endothelial Cells (HUVEC) (from UniProt P05556 21-798) (receptor)” gave an HUVEC adhesion on coated QS-13 after 30 min pre-incubation of the cells with RGDS peptide: change of adhesion [5] of -60% and an HUVEC adhesion on coated QS-13 after pre-incubation of the cells with a blocking anti-α5β1 integrin antibody (10 μg/mL): inhibition of adhesion; an irrelevant IgG had no effect [6] of 71%.

B1: Arresten: the α1(IV) NC1 domain (protein, UniProt P02462 1445-1669, looked up)
Arresten: GFLVTRHSQTIDDPQCPSGTKILYHGYSLLYVQGNERAHGQDLGTAGSCLRKFSTMPFLFCNINNVCNFASRNDYSYWLSTPEPMPMSMAPITGENIRPFISRCAVCEAPAMVMAVHSQTIQIPPCPSGWSSLWIGYSFVMHTSAGAEGSGQALASPGSCLEEFRSAPFIECHGRGTCNYYANAYSFWLATIERSEMFKKPTPSTLKAGELRTHVSRCQVCMRRT
modifications: Arresten
notes: the α1(IV) NC1 domain
In the case of B1, the effect on angiogenesis (angiogenesis) is listed as “inhibit angiogenesis”.

B2: endostatin: 20-kDa C-terminal fragment of type XVIII collagen (protein, UniProt P39060 1572-1754, looked up)
Endostatin: HSHRDFQPVLHLVALNSPLSGGMRGIRGADFQCFQQARAVGLAGTFRAFLSSRLQDLYSIVRRADRAAVPIVNLKDELLFPSWEALFSGSEGPLKPGARIFSFDGKDVLRHPTWPQKSVWHGSDPNGRRLTESYCETWRTEAPSATGQASSLLGGRLLGQSAASCHHAYIVLCIENSFMTASK
modifications: Endostatin
notes: 20-kDa C-terminal fragment of type XVIII collagen
In the case of B2, the “effect on α5β1 integrin” value (α5β1 integrin [7]) is given as “inhibit α5β1 integrin” and the “clinical results with chemotherapies and radiotherapies” value (cancer patients; combination, ref Alday-Parejo et al., 2019) is given as “the results were inconsistent”.

B3: Canstatin: the α2(IV) NC1 domain (protein, UniProt P08572 1486-1712, looked up)
Canstatin: VSIGYLLVKHSQTDQEPMCPVGMNKLWSGYSLLYFEGQEKAHNQDLGLAGSCLARFSTMPFLYCNPGDVCYYASRNDKSYWLSTTAPLPMMPVAEDEIKPYISRCSVCEAPAIAIAVHSQDVSIPHCPAGWRSLWIGYSFLMHTAAGDEGGGQSLVSPGSCLEDFRATPFIECNGGRGTCHYYANKYSFWLTTIPEQSFQGSPSADTLKAGLIRTHISRCQVCMKNL
modifications: Canstatin
notes: the α2(IV) NC1 domain
For B3, the effect on angiogenesis (angiogenesis) is listed as “inhibit angiogenesis”.

B4: Tumstatin: the α3(IV) NC1 domain (protein, UniProt Q01955 1426-1670, looked up)
Tumstatin: PGLKGKRGDSGSPATWTTRGFVFTRHSQTTAIPSCPEGTVPLYSGFSFLFVQGNQRAHGQDLGTLGSCLQRFTTMPFLFCNVNDVCNFASRNDYSYWLSTPALMPMNMAPITGRALEPYISRCTVCEGPAIAIAVHSQTTDIPPCPHGWISLWKGFSFIMFTSAGSEGTGQALASPGSCLEEFRASPFLECHGRGTCNYYSNSYSFWLASLNPERMFRKPIPSTVKAGELEKIISRCQVCMKKRH
modifications: Tumstatin
notes: the α3(IV) NC1 domain
For B4, the effect on angiogenesis (angiogenesis) is given as “inhibit angiogenesis” and the “integrin mediating anti-tumor activity” value (αvβ3 integrin) is given as “mediated through binding to αvβ3 integrin”.
